According to article PMC5836121 (2017):

Assays:
[1] = molecular target: 225-3 miniprotein (fluorescein (N-(5-fluoresceinyl)maleimide) in fluorescence polarisation; biotin-PEG2-maleimide where immobilised in SPR; unlabelled otherwise); experiment: FP; GppNHp
[2] = molecular target: KRas(WT) (human, UniProt P01116 1-187, 15N-labelled in NMR; biotin on the yBBr tag (by Sfp) in SPR); experiment: SPR; GppNHp

B1: RalA (natural protein)
chain: MAANKPKGQNSLALHKVIMVGSGGVGKSALTLQFMYDEFVEDYEPTKADSYRKKVVLDGEEVQIDILDTAGQEDYAAIRDNYFRSGEGFLCVFSITEMESFAATADFREQILRVKEDENVPFLLVGNKSDLEDKRQVSVEEAKNRAEQWNVNYVETSAKTRANVDKVFFDLMREIRARKMEDSKEKNGKKKRKSLAKRIRERCCIL
modifications: biotinylated in SPR; unlabelled in fluorescence polarisation
Question: With B1 as the binder, how does the Kd [1] read?
Answer: The Kd was greater than 10 µM.

B2: Rab25 (natural protein)
chain: MGNGTEEDYNFVFKVVLIGESGVGKTNLLSRFTRNEFSHDSRTTIGVEFSTRTVMLGTAAVKAQIWDTAGLERYRAITSAYYRGAVGALLVFDLTKHQTYAVVERWLKELYDHAEATIVVMLVGNKSDLSQAREVPTEEARMFAENNGLLFLETSALDSTNVELAFETVLKEIFAKVSKQRQNSIRTNAITLGSAQAGQEPGPGEKRACCISL
modifications: biotinylated in SPR; unlabelled in fluorescence polarisation
Question: For B2, which Kd [1] is on record?
Answer: The Kd was greater than 10 µM.

B3: 225-15a/b heterodimeric miniprotein (designed binder)
chain 1: SGPRRPRCPGDQASLEELHEYWARLWNYLYRVAH
chain 2: GGGPRRPRCPGDNASIKQLHAYWQRLYAYLAAVA
modifications: oxidized dimer (disulfide with the other chain) | oxidized dimer (disulfide with the other chain)
Question: Which Kd [2] does the source give for B3 here?
Answer: The Kd was 90 pM.
